# According to article PMC8301185, “Secondary Structure of the Novel Myosin Binding Domain WYR and Implications within Myosin Structure” (Biology, 2021):
# Ends that are not written are not given here.
# T1: Myosin heavy chain, muscle (LMM) 1346-1941 (Drosophila melanogaster, UniProt P05661)
# T1 chain: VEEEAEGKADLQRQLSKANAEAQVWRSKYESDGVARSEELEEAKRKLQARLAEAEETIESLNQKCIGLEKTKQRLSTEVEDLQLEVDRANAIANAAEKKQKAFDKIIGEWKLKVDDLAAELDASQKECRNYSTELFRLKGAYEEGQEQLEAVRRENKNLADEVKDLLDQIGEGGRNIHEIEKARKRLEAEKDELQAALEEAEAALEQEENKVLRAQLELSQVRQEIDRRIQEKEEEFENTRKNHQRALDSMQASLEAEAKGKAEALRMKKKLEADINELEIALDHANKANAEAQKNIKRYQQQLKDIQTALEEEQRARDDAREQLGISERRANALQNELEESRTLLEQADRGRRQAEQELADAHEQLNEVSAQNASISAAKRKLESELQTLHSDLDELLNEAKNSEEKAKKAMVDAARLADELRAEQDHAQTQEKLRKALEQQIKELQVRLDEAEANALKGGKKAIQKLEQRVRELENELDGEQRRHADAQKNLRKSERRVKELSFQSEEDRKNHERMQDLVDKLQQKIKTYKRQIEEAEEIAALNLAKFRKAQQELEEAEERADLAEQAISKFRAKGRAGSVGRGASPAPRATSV
# Tests used:
# [1] = molecular target: T2, LMM (V1346 through I1941 of D. melanogaster myosin heavy-chain) (Drosophila melanogaster, UniProt P05661); test: Co-sedimentation assay of LMM titrated by WYR; format: binding
# T2 construct: encompassing V1346 through I1941 of D. melanogaster myosin heavy-chain; made in house; host or cells: E. coli BL-21(DE3) pLysS
# T2 sequence (P05661 1-1936 isoform P05661-24): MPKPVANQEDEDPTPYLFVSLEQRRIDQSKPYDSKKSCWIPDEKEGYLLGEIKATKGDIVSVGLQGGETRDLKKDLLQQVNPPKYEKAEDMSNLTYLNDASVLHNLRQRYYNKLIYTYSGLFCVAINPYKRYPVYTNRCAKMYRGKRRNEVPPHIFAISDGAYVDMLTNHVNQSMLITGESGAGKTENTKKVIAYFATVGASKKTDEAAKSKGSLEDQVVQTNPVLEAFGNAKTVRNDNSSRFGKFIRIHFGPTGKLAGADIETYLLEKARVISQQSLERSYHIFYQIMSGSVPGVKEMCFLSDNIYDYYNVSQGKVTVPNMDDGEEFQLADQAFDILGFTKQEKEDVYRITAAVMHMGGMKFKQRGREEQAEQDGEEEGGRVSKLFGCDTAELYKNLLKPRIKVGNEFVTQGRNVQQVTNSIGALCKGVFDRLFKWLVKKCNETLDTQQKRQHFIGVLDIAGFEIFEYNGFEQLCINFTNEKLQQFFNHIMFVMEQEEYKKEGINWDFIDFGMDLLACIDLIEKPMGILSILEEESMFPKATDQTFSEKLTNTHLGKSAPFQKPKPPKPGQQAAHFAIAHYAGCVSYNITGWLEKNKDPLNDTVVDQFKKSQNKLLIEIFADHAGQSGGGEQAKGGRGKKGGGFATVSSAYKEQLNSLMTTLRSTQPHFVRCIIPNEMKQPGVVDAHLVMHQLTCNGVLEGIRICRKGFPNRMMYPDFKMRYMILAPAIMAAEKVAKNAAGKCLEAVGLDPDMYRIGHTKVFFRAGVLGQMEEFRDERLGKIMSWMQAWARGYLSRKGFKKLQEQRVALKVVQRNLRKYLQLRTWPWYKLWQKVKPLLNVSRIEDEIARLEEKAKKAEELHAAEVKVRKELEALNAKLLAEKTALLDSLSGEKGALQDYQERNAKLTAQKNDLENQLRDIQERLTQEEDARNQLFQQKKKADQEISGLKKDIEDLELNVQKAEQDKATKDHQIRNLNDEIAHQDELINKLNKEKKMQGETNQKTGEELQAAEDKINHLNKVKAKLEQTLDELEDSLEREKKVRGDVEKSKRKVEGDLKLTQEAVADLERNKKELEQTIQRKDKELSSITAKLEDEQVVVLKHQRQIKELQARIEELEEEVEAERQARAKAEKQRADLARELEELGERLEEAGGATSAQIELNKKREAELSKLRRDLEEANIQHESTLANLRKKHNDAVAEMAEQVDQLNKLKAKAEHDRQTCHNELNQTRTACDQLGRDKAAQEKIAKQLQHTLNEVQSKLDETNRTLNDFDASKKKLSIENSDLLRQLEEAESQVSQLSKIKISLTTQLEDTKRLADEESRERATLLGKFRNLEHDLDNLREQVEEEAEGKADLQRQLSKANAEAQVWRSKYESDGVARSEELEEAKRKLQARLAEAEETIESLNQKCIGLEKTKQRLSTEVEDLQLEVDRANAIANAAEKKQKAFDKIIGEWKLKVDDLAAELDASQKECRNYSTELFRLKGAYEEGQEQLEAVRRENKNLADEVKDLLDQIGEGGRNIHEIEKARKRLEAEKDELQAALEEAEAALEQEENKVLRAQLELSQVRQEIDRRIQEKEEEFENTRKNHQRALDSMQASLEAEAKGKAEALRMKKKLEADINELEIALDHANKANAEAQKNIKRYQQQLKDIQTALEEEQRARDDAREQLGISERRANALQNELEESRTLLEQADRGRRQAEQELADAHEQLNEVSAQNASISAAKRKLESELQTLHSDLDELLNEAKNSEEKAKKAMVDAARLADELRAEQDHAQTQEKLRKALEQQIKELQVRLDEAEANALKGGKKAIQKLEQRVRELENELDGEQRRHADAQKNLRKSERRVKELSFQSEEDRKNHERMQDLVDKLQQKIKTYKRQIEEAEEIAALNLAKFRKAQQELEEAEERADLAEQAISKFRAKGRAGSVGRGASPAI
# Protocol: A 68.9 kDa 602 aa peptide encompassing V1346 through I1941 of D. melanogaster myosin heavy-chain (herein LMM) with an N-terminal 6× His-tag cloned into pET-23a vector was transformed into E. coli BL-21(DE3) pLysS cells. Cells were grown in Luria broth (LB) containing 100 µg/mL ampicillin and 50 µg/mL chloramphenicol. Upon reaching A600 of 0.8–1.0, culture was chilled on ice for 15 min, and expression was induced by adding IPTG to 0.75 mM and incubating for 16 h at 25 °C with gentle rocking. Induced cells were collected by centrifugation at 10,000 rcf for 10 min and stored as pellets at −40 °C. Pellets were resuspended in lysis buffer described by Korkmaz et al., and lysed by sonication. […] The relative purity of each fraction was assessed via SDS-PAGE stained with Krypton (Thermo Scientific, Rockford, IL, USA). […] Protein concentration was determined via absorbance at 280 nm using an extinction coefficient of 18450 cm^−1 M^−1. […]
# Synthetic, 6.6 kDa 52 aa WYR peptide encompassing H84-T136 of D. melanogaster flightin was sourced from Genscript (Piscataway, NJ, USA). Peptide was suspended in ddH2O, filtered through a 0.22 µm Millipore filter, and concentration determined by micro BCA assay and absorbance at 280 nm using an extinction coefficient of 21,430 cm^−1 M^−1. […]
# [2] = Circular dichroism of LMM alone, secondary structure estimation; format: physicochemical; conditions: for CD maximum wavelength: MRE profile, Figure S9; for helicity, range over methods: without CONTIN, CDSSTR, BeStSel; for α helical content, range over methods: all methods
# Protocol: A 68.9 kDa 602 aa peptide encompassing V1346 through I1941 of D. melanogaster myosin heavy-chain (herein LMM) with an N-terminal 6× His-tag cloned into pET-23a vector was transformed into E. coli BL-21(DE3) pLysS cells. Cells were grown in Luria broth (LB) containing 100 µg/mL ampicillin and 50 µg/mL chloramphenicol. Upon reaching A600 of 0.8–1.0, culture was chilled on ice for 15 min, and expression was induced by adding IPTG to 0.75 mM and incubating for 16 h at 25 °C with gentle rocking. Induced cells were collected by centrifugation at 10,000 rcf for 10 min and stored as pellets at −40 °C. Pellets were resuspended in lysis buffer described by Korkmaz et al., and lysed by sonication. To purify the MHC peptide, the lysate was rocked at 4 °C with Ni-NTA-agarose resin for one hour in a 20 mL column before being rinsed with 8 column volumes of 20 mM imidazole wash-buffer. The resin was then rinsed in two 15 mL portions of each 40- and 80 mM imidazole wash buffer, with 10 min of rocking in each 15 mL portion. The peptide was eluted in six 1 mL fractions and one 12 mL fraction for a total volume of 18 mL 200 mM imidazole elution buffer. All wash and elution buffers are variants of ‘Buffer A’ described by Korkmaz et al. with the following modifications: imidazole concentration was adjusted to 20 mM, 40 mM or 80 mM for wash buffer and to 200 mM for elution buffer. The relative purity of each fraction was assessed via SDS-PAGE stained with Krypton (Thermo Scientific, Rockford, IL, USA). Selected fractions were further purified and concentrated with an Amicon Ultra-15 50k centrifugal filter, and buffer exchanged into 400 mM NaF, 20 mM sodium phosphate pH 7.0, 1 mM TCEP for storage. Protein concentration was determined via absorbance at 280 nm using an extinction coefficient of 18450 cm^−1 M^−1. Densitometry using ImageJ was carried out on Krypton stained gels to ascertain purity of the sample [23] and the peptide identity verified by mass spectrometry.
# WYR and LMM samples ranging from 0.5 to 10 µM were prepared in 700 µL of 215 mM NaF, 20 mM Sodium Phosphate, pH 7, 1 mM TCEP. LMM preparations were centrifuged at 10,000 rcf for 10 min and filtered through a 0.22 µm Millipore filter. Blank samples used an equivalent volume of filtrate from the final flow through from LMM concentrators as used in the experimental samples to account for any possible trace contaminant. These blanks were checked against equivalent freshly prepared buffer. A rectangular STARNA quartz cuvette with a pathlength of 0.2 cm was used throughout. Between experiment days the cuvette received a full wash with the provided STARNA detergent in accordance to STARNA protocol. Between samples, 1× 60% EtOH and 3× dH2O rinses were carried out and residual fluid was evaporated with pressurized nitrogen.
# Samples were measured at 25 °C using a Jasco J-1700 spectropolarimeter at a scanning-speed of 20 nm/min with a digital integration time (DIT) of 8 s and bandwidth of 0.5–1 nm over six accumulations, minimally from 260–190 nm on continuous scan mode. A minimum n = 6 was used for measurements of the experimental combination of LMM and WYR and an n = 10 for WYR alone in 215 mM NaF, 20 mM Sodium Phosphate, pH 7, 1 mM TCEP. Wavelengths at maxima and minima, as well as θ222/208 and θ192/208 ellipticity ratios were recorded for all spectra. […] While other analysis programs exist, BeStSel is best suited for non-helical proteins of more unusual structure through both its diverse eight element modelling and inclusion of a basis dataset that incorporates proteins with rare secondary structures. BeStSel was most appropriate given the non-helical profile of WYR along with its high aromatic content and presence of proline.
# Independent spectra for each peptide were evaluated after subtracting baseline spectra. […]
# [3] = molecular target: T1, Myosin heavy chain, muscle (LMM) …; test: co-sedimentation
molecule,measurement,setting,value
HWVRPKFLQYKYMYNYRTNYYDDVIDYIDKKQTGVAREIPRPQTWAERVLRT [WYR],Kd,"[1]; Kd 95% CI, 95% confidence interval of Kd, co-sedimentation",1.55 to 2.76 µM
same,LMM sedimenting in the presence of WYR,[1]; upon centrifugation at the WYR/LMM ratio used in CD experiments,~ 30%
"LMM: 68.9 kDa 602 aa peptide encompassing V1346 through I1941 of D. melanogaster myosin heavy-chain with an N-terminal 6× His-tag (protein, UniProt P05661 1346-1941, looked up, fragment, N-terminal 6xHis tag, 68.9 kDa 602 aa peptide encompassing V1346 through I1941 of D. melanogaster myosin heavy-chain with an N-terminal 6× His-tag) VEEEAEGKADLQRQLSKANAEAQVWRSKYESDGVARSEELEEAKRKLQARLAEAEETIESLNQKCIGLEKTKQRLSTEVEDLQLEVDRANAIANAAEKKQKAFDKIIGEWKLKVDDLAAELDASQKECRNYSTELFRLKGAYEEGQEQLEAVRRENKNLADEVKDLLDQIGEGGRNIHEIEKARKRLEAEKDELQAALEEAEAALEQEENKVLRAQLELSQVRQEIDRRIQEKEEEFENTRKNHQRALDSMQASLEAEAKGKAEALRMKKKLEADINELEIALDHANKANAEAQKNIKRYQQQLKDIQTALEEEQRARDDAREQLGISERRANALQNELEESRTLLEQADRGRRQAEQELADAHEQLNEVSAQNASISAAKRKLESELQTLHSDLDELLNEAKNSEEKAKKAMVDAARLADELRAEQDHAQTQEKLRKALEQQIKELQVRLDEAEANALKGGKKAIQKLEQRVRELENELDGEQRRHADAQKNLRKSERRVKELSFQSEEDRKNHERMQDLVDKLQQKIKTYKRQIEEAEEIAALNLAKFRKAQQELEEAEERADLAEQAISKFRAKGRAGSVGRGASPAPRATSV",fractional alpha helical composition,"[2]; 208 nm magnitude, [LMM] 2 µM",28.5%
same,fractional alpha helical composition,"[2]; 208 nm magnitude, [LMM] 10 µM",28.7%
same,fractional alpha helical composition,"[2]; 222 nm magnitude, [LMM] 2 µM",18.1%
same,fractional alpha helical composition,"[2]; 222 nm magnitude, [LMM] 10 µM",19.1%
same,fractional alpha helical composition,"[2]; 230-240 nm slope, [LMM] 2 µM",14.2%
same,fractional alpha helical composition,"[2]; 230-240 nm slope, [LMM] 10 µM",15.3%
same,fractional alpha helical composition,"[2]; BeStSel (190-260), [LMM] 2 µM",11.3%
same,fractional alpha helical composition,"[2]; BeStSel (190-260), [LMM] 10 µM",15.6%
same,fractional alpha helical composition,"[2]; CDSSTR (SMP180), [LMM] 2 µM",8%
same,fractional alpha helical composition,"[2]; CDSSTR (SMP180), [LMM] 10 µM",17.9%
same,fractional alpha helical composition,"[2]; CONTIN (SMP180), [LMM] 10 µM",8.2%
same,fractional alpha helical composition,"[2]; K2D, [LMM] 2 µM",19%
same,fractional alpha helical composition,"[2]; K2D, [LMM] 10 µM",22%
same,CD maximum wavelength,[2]; LMM 2 µM,193-194 nm
same,CD maximum wavelength,[2]; LMM 10 µM (higher concentration),197-198 nm
same,222/208 ratio,[2]; [LMM] 2 µM (low),1.08
same,222/208 ratio,[2]; [LMM] 10 µM (high),1.17
same,"helicity, range over methods",[2]; high concentration,15.3 to 28.7%
same,"α helical content, range over methods",[2]; higher LMM concentration (10 µM),8.2–28.7%
same,"helicity, range over methods",[2]; low concentration,14.2 to 28.5%
same,"α helical content, range over methods",[2]; lower LMM concentration (2 µM),8–28.5%
Flightin (WYR domain) 84-136 (protein) HWVRPKFLQYKYMYNYRTNYYDDVIDYIDKKQTGVAREIPRPQTWAERVLRTR,Kd,[3],2.06 µM
